Laboratory results published in the supplement of paper PMC9112550, “Optimization of the antimicrobial peptide Bac7 by deep mutational scanning” (BMC Biology, 2022).

Tested on: Escherichia coli TOP10
Test: shrunken log2 fold change of peptide-encoding DNA abundance (4.5 h post-induction vs induction); higher = less antimicrobial activity (less host growth inhibition)
Details: time post-induction: 4.5 h; library: site-saturation at positions 5, 18, 19, 20
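Further: peptides expressed intracellularly from a pBAD plasmid library in pooled LB shake-flask culture, induced with 0.3% L-arabinose, DNA abundance read by NGS, three biological replicates, DESeq2 with apeglm shrinkage.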

Row | Sequence | shrunken log2 fold change
1 | RRIRERPPRLPRPRPRPNDAPRP | -0.19
2 | RRIRDRPPRLPRPRPRPDDLPRP | 0.00447
3 | RRIRTRPPRLPRPRPRPFRMPRP | 0.0244
4 | RRIRCRPPRLPRPRPRPMPNPRP | -0.368
5 | RRIRLRPPRLPRPRPRPHWGPRP | 0.0796
6 | RRIRCRPPRLPRPRPRPLIDPRP | -0.301
7 | RRIRDRPPRLPRPRPRPYRSPRP | -0.142
8 | RRIRQRPPRLPRPRPRPFKLPRP | -0.152
9 | RRIRCRPPRLPRPRPRPSHPPRP | -0.0807
10 | RRIRHRPPRLPRPRPRPKGKPRP | -0.0894
11 | RRIRTRPPRLPRPRPRPGTMPRP | -0.254
12 | RRIRYRPPRLPRPRPRPWHEPRP | -0.01
13 | RRIRVRPPRLPRPRPRPVPDPRP | -0.103
14 | RRIRARPPRLPRPRPRPDGHPRP | 0.0106
15 | RRIRVRPPRLPRPRPRPCYVPRP | -0.0957
16 | RRIRKRPPRLPRPRPRPNCGPRP | 0.0611
17 | RRIRWRPPRLPRPRPRPWDKPRP | -0.0732
18 | RRIRQRPPRLPRPRPRPLYFPRP | -0.623
19 | RRIRYRPPRLPRPRPRPEVIPRP | -0.01
20 | RRIRYRPPRLPRPRPRPLHGPRP | -0.0615
21 | RRIRERPPRLPRPRPRPEGHPRP | 0.11
22 | RRIRKRPPRLPRPRPRPCHIPRP | -0.00879
23 | RRIRARPPRLPRPRPRPIRKPRP | 0.0897
24 | RRIRRRPPRLPRPRPRPFTKPRP | -0.221
25 | RRIRKRPPRLPRPRPRPTPGPRP | 0.683

Row | Sequence | shrunken log2 fold change
26 | RRIRCRPPRLPRPRPRPMYMPRP | -0.143
27 | RRIRYRPPRLPRPRPRPFFFPRP | -0.253
28 | RRIRFRPPRLPRPRPRPPEAPRP | 0.232
29 | RRIRLRPPRLPRPRPRPNSMPRP | -0.0473
30 | RRIRERPPRLPRPRPRPTIMPRP | -0.959
31 | RRIRVRPPRLPRPRPRPYLNPRP | -0.16
32 | RRIRQRPPRLPRPRPRPKLRPRP | -0.0665
33 | RRIRIRPPRLPRPRPRPMQAPRP | -0.00238
34 | RRIRTRPPRLPRPRPRPMQYPRP | -0.0442
35 | RRIRRRPPRLPRPRPRPGRYPRP | 0.218
36 | RRIRKRPPRLPRPRPRPYEQPRP | -0.0536
37 | RRIRGRPPRLPRPRPRPAMQPRP | 1.05
38 | RRIRLRPPRLPRPRPRPKETPRP | 0.137
39 | RRIRVRPPRLPRPRPRPWFVPRP | -0.475
40 | RRIRIRPPRLPRPRPRPLRLPRP | 0.281
41 | RRIRLRPPRLPRPRPRPPLLPRP | 0.158
42 | RRIRHRPPRLPRPRPRPHVWPRP | 0.205
43 | RRIRNRPPRLPRPRPRPSPLPRP | -0.334
44 | RRIRARPPRLPRPRPRPHCMPRP | 0.19
45 | RRIRWRPPRLPRPRPRPAQNPRP | 0.437
46 | RRIRPRPPRLPRPRPRPEEQPRP | 0.00406
47 | RRIRHRPPRLPRPRPRPFYSPRP | -0.00674
48 | RRIRARPPRLPRPRPRPDWKPRP | -0.108
49 | RRIRARPPRLPRPRPRPERQPRP | 1.13
50 | RRIRWRPPRLPRPRPRPYAQPRP | -0.189

Row | Sequence | shrunken log2 fold change
51 | RRIRKRPPRLPRPRPRPVYRPRP | -0.667
52 | RRIRQRPPRLPRPRPRPAAMPRP | 0.248
53 | RRIRERPPRLPRPRPRPLGCPRP | -0.166
54 | RRIRGRPPRLPRPRPRPTKSPRP | 0.583
55 | RRIRKRPPRLPRPRPRPVSKPRP | 0.128
56 | RRIRYRPPRLPRPRPRPMIWPRP | -0.00195
57 | RRIRVRPPRLPRPRPRPIFEPRP | 0.149
58 | RRIRWRPPRLPRPRPRPNLDPRP | 0.278
59 | RRIRRRPPRLPRPRPRPDHPPRP | 0.0778
60 | RRIRGRPPRLPRPRPRPYAKPRP | -0.0213
61 | RRIRMRPPRLPRPRPRPQTVPRP | 0.291
62 | RRIRCRPPRLPRPRPRPNHHPRP | -0.604
63 | RRIRSRPPRLPRPRPRPRTCPRP | 0.0915
64 | RRIRIRPPRLPRPRPRPTDSPRP | -0.237
65 | RRIRLRPPRLPRPRPRPPSCPRP | 0.341
66 | RRIRDRPPRLPRPRPRPVKYPRP | -0.346
67 | RRIRPRPPRLPRPRPRPEKPPRP | -0.129
68 | RRIRFRPPRLPRPRPRPRFIPRP | -0.498
69 | RRIRDRPPRLPRPRPRPDGPPRP | 0.0462
70 | RRIRERPPRLPRPRPRPTAAPRP | 0.456
71 | RRIRARPPRLPRPRPRPDIEPRP | -0.0212
72 | RRIRARPPRLPRPRPRPDNCPRP | -0.153
73 | RRIRPRPPRLPRPRPRPMYYPRP | -0.631
74 | RRIRVRPPRLPRPRPRPSQTPRP | 0.112
75 | RRIRCRPPRLPRPRPRPVRKPRP | 0.0744

Row | Sequence | shrunken log2 fold change
76 | RRIRNRPPRLPRPRPRPFQIPRP | -0.121
77 | RRIRCRPPRLPRPRPRPCYTPRP | -0.397
78 | RRIRQRPPRLPRPRPRPWKKPRP | -0.000921
79 | RRIRKRPPRLPRPRPRPGADPRP | 0.709
80 | RRIRKRPPRLPRPRPRPFVGPRP | -0.0257
81 | RRIRERPPRLPRPRPRPWGQPRP | 0.115
82 | RRIRHRPPRLPRPRPRPNYDPRP | -0.471
83 | RRIRHRPPRLPRPRPRPHWLPRP | -0.123
84 | RRIRWRPPRLPRPRPRPIQHPRP | 0.00853
85 | RRIRWRPPRLPRPRPRPFRNPRP | -0.209
86 | RRIRFRPPRLPRPRPRPPNKPRP | 0.1
87 | RRIRYRPPRLPRPRPRPPRRPRP | 0.261
88 | RRIRYRPPRLPRPRPRPLYVPRP | -0.465
89 | RRIRSRPPRLPRPRPRPLNSPRP | -0.327
90 | RRIRCRPPRLPRPRPRPKVLPRP | 0.0115
91 | RRIRQRPPRLPRPRPRPDIKPRP | -0.0227
92 | RRIRFRPPRLPRPRPRPRYKPRP | -0.311
93 | RRIRIRPPRLPRPRPRPRLSPRP | -0.325
94 | RRIRARPPRLPRPRPRPRGNPRP | 0.494
95 | RRIRKRPPRLPRPRPRPTGPPRP | 0.588
96 | RRIRFRPPRLPRPRPRPCGVPRP | 0.0327
97 | RRIRYRPPRLPRPRPRPAEYPRP | -0.58
98 | RRIRQRPPRLPRPRPRPWNNPRP | 0.079
99 | RRIRERPPRLPRPRPRPGPNPRP | -0.106
100 | RRIRQRPPRLPRPRPRPSIIPRP | -0.63

Row | Sequence | shrunken log2 fold change
101 | RRIRGRPPRLPRPRPRPVTQPRP | 0.445
102 | RRIRGRPPRLPRPRPRPPMYPRP | 0.145
103 | RRIRHRPPRLPRPRPRPGTTPRP | -0.221
104 | RRIRDRPPRLPRPRPRPQLTPRP | 0.0489
105 | RRIRIRPPRLPRPRPRPWYLPRP | -0.166
106 | RRIRTRPPRLPRPRPRPHWEPRP | -0.171
107 | RRIRNRPPRLPRPRPRPLVAPRP | -0.124
108 | RRIRLRPPRLPRPRPRPYCAPRP | -0.151
109 | RRIRDRPPRLPRPRPRPAHPPRP | -0.203
110 | RRIRIRPPRLPRPRPRPGPEPRP | 0.342
111 | RRIRWRPPRLPRPRPRPTSWPRP | 0.249
112 | RRIRYRPPRLPRPRPRPDRMPRP | -0.566
113 | RRIRDRPPRLPRPRPRPLGWPRP | 0.366
114 | RRIRTRPPRLPRPRPRPWPLPRP | 0.0506
115 | RRIRGRPPRLPRPRPRPNNVPRP | -0.131
116 | RRIRVRPPRLPRPRPRPIAEPRP | 0.127
117 | RRIRARPPRLPRPRPRPNRDPRP | -0.183
118 | RRIRKRPPRLPRPRPRPEIWPRP | 2.45
119 | RRIRSRPPRLPRPRPRPMCHPRP | -0.576
120 | RRIRSRPPRLPRPRPRPNHGPRP | -0.4
121 | RRIRHRPPRLPRPRPRPGQDPRP | 0.0217
122 | RRIRVRPPRLPRPRPRPCHQPRP | -0.483
123 | RRIRMRPPRLPRPRPRPHYLPRP | 0.106
124 | RRIRARPPRLPRPRPRPSFGPRP | 1.08
125 | RRIRWRPPRLPRPRPRPCCGPRP | 0.293
